According to paper PMC11165160, “Four novel Cit7GlcTs functional in flavonoid 7-O-glucoside biosynthesis are vital to flavonoid biosynthesis shunting in citrus” (Horticulture Research, 2024):

Tests used:
Test in all cases: HPLC product assay, Michaelis-Menten fit
Type in all cases: biochemical, Citrus maxima
[1] = substrate: COc1ccc([C@@H]2CC(=O)c3c(O)cc(O)cc3O2)cc1O; conditions: 1 mM UDP-glucose
[2] = substrate: O=C1C[C@@H](c2ccc(O)cc2)Oc2cc(O)cc(O)c21; conditions: 1 mM UDP-glucose
[3] = substrate: O=c1c(O)c(-c2ccc(O)cc2)oc2cc(O)cc(O)c12; conditions: 1 mM UDP-glucose
[4] = substrate: O=c1cc(-c2ccc(O)cc2)oc2cc(O)cc(O)c12; conditions: 1 mM UDP-glucose
[5] = substrate: COc1ccc(-c2cc(=O)c3c(O)cc(O)cc3o2)cc1O; conditions: 1 mM UDP-glucose, 50 mM PBS pH 7.0, 35 °C
[6] = substrate: O=c1c(O)c(-c2ccc(O)c(O)c2)oc2cc(O)cc(O)c12; conditions: 1 mM UDP-glucose, 50 mM PBS pH 7.0, 35 °C
Source text: (§1) HPLC product assay, Michaelis-Menten fit on CgUGT89AK1

[7] = substrate: O=C1C[C@@H](c2ccc(O)cc2)Oc2cc(O)cc(O)c21; conditions: 1 mM UDP-glucose, 50 mM PBS pH 7.0, 35 °C
Source text: as §1

[8] = substrate: O=C1C[C@@H](c2ccc(O)c(O)c2)Oc2cc(O)cc(O)c21; conditions: 1 mM UDP-glucose, 50 mM PBS pH 7.0, 35 °C
Source text: as §1

[9] = substrate: COc1ccc(-c2cc(=O)c3c(O)cc(O)cc3o2)cc1O; conditions: 1 mM UDP-glucose, 50 mM PBS pH 7.0, 35 °C; remark: listed apart in the source
Source text: as §1

[10] = substrate: O=c1cc(-c2ccc(O)cc2)oc2cc(O)cc(O)c12; conditions: 1 mM UDP-glucose, 50 mM PBS pH 7.0, 35 °C
Source text: as §1

B1: CgUGT73AC12 (Citrus maxima) (protein)
chain: MDSKSSPVEMFFFPYVGGGHQIPMVDIARIFAAHGAKSTIITSPKHALSFQKSINRNQQSGLPITIKTLHLPDDIEIPDTDMSATPRTDTSMLQKPLKSLLLDSRPDCIVHDMFHHWSADVINSMNIPRIVFNGNCCFSRCVLENVRKYKPHEKVSSDYEPFVVPGLPDKIELTSSQLPVGARQQEAGSVHKMFAKPEEKSFGIVVNSFYDLEPAYVEYFKQDLGNDKAWFVGPVSLCNRNIEDKAERGQKTSIDEGKILSFLDSKETNSVLYISFGSLARLAPEQLLEIAYGLEASNHSFIWVVGKIFQSPGTRKENGIEENWLPSGFEERMRESKRGLIIRGWAPQLLILEHAAVGGFMTHCGWNSTLESVSAGVPMVTWPITAEQFSNEKLISDVLKIGVKVGSVNWVSWSTEPSAAVGRDKVEVAVKRLMGTGEEAAEMRRRAGELGEKAKNAVEEGGSSFIDAEALLQELKSLSRI
With B1 the Km ([1]; 50 mM PBS pH 7.0, 35 °C) was 169.68 ± 54.77 µM, the kcat/Km ([1]; 50 mM PBS pH 7.0, 35 °C) was 5.62 M⁻¹ s⁻¹ and the Km ([2]; 50 mM PBS pH 7.0, 35 °C) was 105.34 ± 35.62 µM. It also gave a kcat/Km ([2]; 50 mM PBS pH 7.0, 35 °C) of 6.36 M⁻¹ s⁻¹, a Km ([3]; 50 mM PBS pH 7.0, 35 °C) of 92.58 ± 55.02 µM and a kcat/Km ([3]; 50 mM PBS pH 7.0, 35 °C) of 11 M⁻¹ s⁻¹. It also gave a Km ([4]; 50 mM PBS pH 7.0, 35 °C) of 153.66 ± 62.17 µM and a kcat/Km ([4]; 50 mM PBS pH 7.0, 35 °C) of 5.93 M⁻¹ s⁻¹.

B2: CgUGT89D30 (Citrus maxima) (protein)
chain: MSSSNTRTTHILIFPYPAQGHMLPLLDLTHQLSLKDLDITILVTPKNLPILSPLLDAHPAIKTLVLPFPSHPSIPPGIENVRELGNRGNYPIMTALGKLYGPIIDWFRSQANPPVAILSDFFLGWTLKLAHQLNIVRIAFFSSGWLLASVVDYCWHHIGDVKSLDVVEFPDLPRYPVFKRRHLPSMVRSYKESDPESQFVKDGNLANTSSWGCVFNSFDALEGEYSDYLKRKMGHDRVFGVGPLSLVGLESTGGGDPGLGPNDHVTKWLDGCPDGSVVYVCFGSQKALKRDQMEALASGLEKSGIRFLWVVKTGMIGKGDDGYGSMPDGFEEQVAGRGLVLKGWAPQVSILSHKAVGGFLSHCGWNSLLEGIVGGAMILAWPMEADQFVNAKLLVEDLGVAVQVCEGADSVPDSDELGNIIAESLSQRDEVKIKAKELRDDALAAVKSDGSSARDLDRLVEELRNLHAK
In the case of B2, the Km ([1]; 50 mM PBS pH 7.0, 30 °C) is reported as 207.41 ± 77.33 µM, the kcat/Km ([1]; 50 mM PBS pH 7.0, 30 °C) is reported as 11 M⁻¹ s⁻¹ and the Km ([2]; 50 mM PBS pH 7.0, 30 °C) is reported as 79.57 ± 5.51 µM. For the same protein, the kcat/Km ([2]; 50 mM PBS pH 7.0, 30 °C) was 18.1 M⁻¹ s⁻¹, the Km ([3]; 50 mM PBS pH 7.0, 30 °C) was 35.76 ± 18.07 µM and the kcat/Km ([3]; 50 mM PBS pH 7.0, 30 °C) was 21.9 M⁻¹ s⁻¹. The Km ([4]; 50 mM PBS pH 7.0, 30 °C) was 17.34 ± 10.85 µM and the kcat/Km ([4]; 50 mM PBS pH 7.0, 30 °C) was 88.2 M⁻¹ s⁻¹.

B3: CgUGT90A31 (Citrus maxima) (protein)
chain: MGSISSDHHVVLFPFMSKGHIIPILNLVQLLLRRPRVTVTVFTTPANRPFTSKFLSNSSTAACSIIDIPYPENVPEIPAGVESTDKLPSMSLYVPFTRATKLMQPHFERALESLPRVSFMVSDGFLWWTLDSANKFGFPRLVFYGMNNYAMSVSRSVGQNRLLSGVQSDDELLTLPEFPWIKITKKDFDSPITDPEPKGPHFELFIDQIVSTSNSHGMIVNSFYELEPLFADHCNRVGKPKSWCVGPLCLAELPPKNEEPKNELSKPAWIKWLDRKLDEGSSVMYVAFGSQAEISAQQLKEIAIGLEQSKVNFLWVIRTAQSELGDGFEERVKGRGLVVRDWVDQNEILWHGSVQGFLSHCGWNSTLESICAGVPILAWPMMAEQPLNARMVTEEIKVGLRVETCDGSVRGFVKWRGLEKTMRELMGGEKGEKARTKVKELSEIARKAMEEGKGSSWRCLDMLLDETCKLEQHD
For B3, the Km ([1]; 50 mM PBS pH 7.0, 35 °C) was 179.10 ± 48.24 µM, the kcat/Km ([1]; 50 mM PBS pH 7.0, 35 °C) was 51.4 M⁻¹ s⁻¹ and the Km ([2]; 50 mM PBS pH 7.0, 35 °C) was 139.04 ± 40.50 µM. The kcat/Km ([2]; 50 mM PBS pH 7.0, 35 °C) was 52 M⁻¹ s⁻¹, the Km ([3]; 50 mM PBS pH 7.0, 35 °C) was 56.20 ± 19.14 µM and the kcat/Km ([3]; 50 mM PBS pH 7.0, 35 °C) was 6.48 M⁻¹ s⁻¹. The Km [5] was 34.93 ± 10.80 µM and the kcat/Km [5] was 15.8 M⁻¹ s⁻¹.

B4: CgUGT89AK1 (Citrus maxima) (protein)
chain: MLPAGAHILVYPFPTSGHIIPLLDLTNRLLTLGLNVTVLITQNNLPLLDSLNANHPSTSLQSLVLPQPKWPAGSPATRLLKFMRVLRELHYPALLDWFKSHPSPPVAILSDFFLGWTQGLAAELGLPRVVFSPSGAFALSVSFAMWTDLPTNDDPDNVDALVSFPRVPNCPVYHWYQISHLYRTLKEGDPDWDLHRSNMMANKTSWGIVFNSFAELERVYIDHMKKEMGHDRVWAVGPVLPPDDDLVESMCRGGSSSVPAHDVLTWLDSRRDESVVYVCFGSRYVLTAKQIHELAAALEKTDVDFVYCVREPDERHASQDCGVLPDGFEDRVAGRGYVIRGWSQQVAILRHKAVGAFLTHCGWNSVLEGVSAGVVMLTWPMDADQYTNAQLLVDQLGVGIRVGEGTRNIPESGELARLLAQSVDGPRRERLKARELSGAALSAVVKGGSSDRDLNDFIKRINELKSGKNLTAV
B4 was tested, and the Km [6] was 19.44 ± 11.00 µM, the kcat/Km [6] was 1350 M⁻¹ s⁻¹ and the Km [7] was 52.88 ± 17.30 µM. It also gave a kcat/Km [7] of 48.3 M⁻¹ s⁻¹, a Km [8] of 26.25 ± 5.65 µM and a kcat/Km [8] of 154 M⁻¹ s⁻¹. The Km [9] was 6.16 ± 2.64 µM, the kcat/Km [9] was 284 M⁻¹ s⁻¹ and the Km [10] was 24.37 ± 5.03 µM. It also gave a kcat/Km [10] of 107 M⁻¹ s⁻¹.
